Experimental data taken from patent US8394929B2, “Nogo receptor-mediated blockade of axonal growth” (Yale University, priority 2000, dated 2013).

T1: NgR carboxy terminal deletion mutant (NgRΔCT) (Mus musculus, UniProt Q99PI8)
T1 construct: expressed in transfected cells; host or cells: chick E7 retinal ganglion cell explants infected with recombinant HSV
T1 sequence (Q99PI8 with tags, fused parts or gaps): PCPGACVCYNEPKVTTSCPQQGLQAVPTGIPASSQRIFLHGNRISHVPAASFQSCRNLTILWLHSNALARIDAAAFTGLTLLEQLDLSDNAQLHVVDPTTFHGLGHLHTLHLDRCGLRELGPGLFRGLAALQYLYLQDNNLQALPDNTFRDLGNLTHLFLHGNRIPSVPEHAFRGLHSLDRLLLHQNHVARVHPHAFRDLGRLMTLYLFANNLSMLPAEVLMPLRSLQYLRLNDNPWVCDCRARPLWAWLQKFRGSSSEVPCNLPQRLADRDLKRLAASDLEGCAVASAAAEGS


Assays:
[1] = test system: dorsal root ganglion neurons; test: Cell survival in GST-Nogo-treated DRG cultures; format: cell-based, chick
From the text: The nanomolar potency is on a par with most known physiologic regulators of axon guidance.

[2] = target: T1, NgR carboxy terminal deletion mutant (NgRΔCT); test: Growth cone collapse in E7 retinal ganglion cells infected with NgRΔCT; format: cell-based
Protocol: Because the mouse NgRCT domain was determined to be dispensable for hNogo-A (1055-1120) binding, the ability of NgRΔCT to mediate Nogo-dependent inhibition was examined. HSVNgR constructs transfected into HEK293T cells mediated the expression of mNgR proteins of the predicted molecular weight, as determined by SDS-PAGE and anti-Myc and anti-NgR immunoblotting (FIG. 19A). Day E7 chick retinal ganglion cells (RGCs) were grown for 12 hr, then further incubated for 24 hr with HSVNgR preparations. Explants were fixed with 4% paraformaldehyde with 0.1 M PO4 and 20% sucrose and stained with phalloidin or with anti-myc antibodies. HSVNgR protein expression was detected in axons of infected (RGC) cultures (FIG. 19B).
Growth cone collapse in response to GST-hNogo-A (1055-1120) was investigated in infected RGC cultures. Retinal explants infected with recombinant viral preparations of PlexinA1 (PlexA1), wild-type NgR (wtNgR), NgRL1 chimeric receptor in which the GPI domain has been replaced by the transmembrane region and cytoplasmic tail from the mouse adhesion protein L1 (NgRL1), or NgR carboxy terminal deletion mutant (NgRΔCT) for 12 hr. Following infection, the cells were treated for 30 min with 0, 50, 250, or 500 nM GST-hNogo-A (1055-1120) (GrandPre et al., Nature 403: 439-444, 2000), fixed with 4% paraformaldehyde with 0.1 M PO4 and 20% sucrose, and stained with phalloidin. […]

mNgR deletion mutants = test: AP-hNogo-A (1055-1120) binding to COS-7 cells transfected with other mNgR deletion mutants; set-up: species or system mouse
From the text: The NgΔRNT construct encodes residues 58 to 473 of mNgR. The NgRANT construct was made by using the primers ΔLRR-NT5 (5′-[…]-3′) and NgR3X (5′-[…]-3′) to amplify a sequence from the wtNgR-pSecTag2Hygro plasmid. The amplified sequence was ligated into the XhoI/BamHI of pSecTag2.
The NgLRR-construct encodes residues 306 to 473 of mNgR. The NgLRR construct was made by using the primers, MycNgR305 (5′-[…]-3′) and NgR3X (above) to amplify a sequence from the from the wtNgR-pSecTag2Hygro plasmid. The amplified sequence was ligated into the XhoI/BamHI of pSecTag2.
The mNgR LLR deletions and NgRΔLRRCT deletion mutants were generated using ExSite™ PCR-based site-directed mutagenesis kit (Stratagene, La Jolla, Calif.). Generally, the primers described below were used to amplify a sequence from the wtNgR pSecTag2 plasmid. The ends of the amplified products were ligated together. The resulting constructs were transfected into COS-7 cells.
The NgRΔ1-2 construct encodes residues 1 to 56 and residues 106 to 473 of mNgR. The primers used for making the NgRΔ1-2 construct were DEL LRR (5′PO4) (5′-[…]-3′) and DEL LRR2 (5′-[…]-3′). […]
To determine whether mNgR or mNgR deletion mutants bound to hNogo-A (1055-1120), wtNgR or mNgR deletion mutants were transfected into COS-7 cells. […] AP-fusion protein was detected as previously described for AP-Sema3A (Takahashi et al., Nature Neurosci. 1:487-493, 1998).

Molecule | number of neurofilament-positive adherent cells [1] | apoptotic nuclei identified by DAPI staining ([1]; GST-Nogo-treated specimens) | growth cone collapse response (in words) [2] | binding (in words) (mNgR deletion mutants)
GST-Nogo: GST fusion protein of the 66 amino acid lumenal-extracellular fragment of Nogo-A, expressed in E. coli (protein, also: GST fusion protein, GST fusion protein of the 66 amino acid lumenal-extracellular fragment of Nogo-A, expressed in E. coli) RIYKGVIQAIQKSDEGHPFRAYLESEVAISEELVQKYSNSALGHVNCTIKELRRLFLVDDLVDSLK | 137±24 % of GST-treated cultures | 5.2±1.1% | insensitive | –
AP-Nogo: fusion protein of His6 tag, placental alkaline phosphatase (AP) and the 66 amino acid active domain of Nogo (protein) HHHHHHIIPVEEENPDFWNREAAEALGAAKKLQPAQTAAKNLIIFLGDGMGVSTVTAARILKGQKKDKLGPEIPLAMDRFPYVALSKTYNVDKHVPDSGATATAYLCGVKGNFQTIGLSAAARFNQCNTTRGNEVISVMNRAKKAGKSVGVVTTTRVQHASPAGTYAHTVNRNWYSDADVPASARQEGCQDIATQLISNMDIDVILGGGRKYMFRMGTPDPEYPDDYSQGGTRLDGKNLVQEWLAKRQGARYVWNRTELMQASLDPSVTHLMGLFEPGDMKYEIHRDSTLDPSLMEMTEAALRLLSRNPRGFFLFVEGGRIDHGHHESRAYRALTETIMFDDAIERAGQLTSEEDTLSLVTADHSHVFSFGGYPLRGSSIFGLAPGKARDRKAYTVLLYGNGPGYVLKDGARPDVTESESGSPEYRQQSAVPLDEETHAGEDVAVFARGPQAHLVHGVQEQTFIAHVMAFAACLEPYTACDLAPPAGTTDAAHPGRIYKGVIQAIQKSDEGHPFRAYLESEVAISEELVQKYSNSALGHVNCTIKELRRLFLVDDLVDSLK | – | – | – | did not
